Experimental data published in patent US20130210151.

Columns and labels:
TevN201-ZFE (synthetic) = test: cell_activity
I-BmoI = test: cleavage_in_vitro; details: one-site plasmid; two-site 0.096
Chain of I-BmoI (chain, as listed by the source): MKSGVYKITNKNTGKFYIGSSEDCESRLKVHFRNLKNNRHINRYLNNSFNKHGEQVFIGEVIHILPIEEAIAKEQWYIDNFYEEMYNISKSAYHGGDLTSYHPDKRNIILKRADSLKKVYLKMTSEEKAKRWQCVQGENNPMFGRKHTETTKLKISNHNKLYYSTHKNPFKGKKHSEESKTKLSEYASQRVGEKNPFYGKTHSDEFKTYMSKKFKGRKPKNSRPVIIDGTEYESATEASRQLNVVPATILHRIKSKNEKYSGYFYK

Chain of TevN201-ZFE (synthetic) (chain, as listed by the source): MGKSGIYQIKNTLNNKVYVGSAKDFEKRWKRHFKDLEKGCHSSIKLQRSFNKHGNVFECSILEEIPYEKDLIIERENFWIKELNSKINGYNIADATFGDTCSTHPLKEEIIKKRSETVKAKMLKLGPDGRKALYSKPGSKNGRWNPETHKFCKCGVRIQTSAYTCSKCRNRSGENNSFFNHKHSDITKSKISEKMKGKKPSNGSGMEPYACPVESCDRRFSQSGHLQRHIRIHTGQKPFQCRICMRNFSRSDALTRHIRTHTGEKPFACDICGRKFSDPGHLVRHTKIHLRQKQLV

Substance: p11-lacY-wtx1 plasmid without target site
- activity (TevN201-ZFE (synthetic)): 0 % survival

Substance: pBmoIHS thyA homing site plasmid
- activity (I-BmoI): 0.105 s-1 (kobs)
